Columns and labels:
HLA-A*0201 = biological target: T1, HLA-A*0201 (Homo sapiens, UniProt P04439, D140Y/D185E/D98H/E176V/E277Q/G131W/G231S/I119V/I121R/I166T/I218V/L300P/L318F/N151K/N90K/P208A/P217A/Q86G/Q94H/R138H/R169H/T345S); test: In vitro affinity of peptides to HLA-A*0201 on T2 cell line (FACS, anti-HLA-A2 labeling); type: cell-based; details: T2 cells; for Binding to HLA-A*0201 (in words): in vitro; for Mean fluorescence intensity: 16 hours
T1 construct: human tumoral cell T2 which expresses the HLA-A*0201 molecule; endogenous in cells; host or cells: T2 cells (human, TAP1/2 negative)
From the text: A method for in vitro testing is well-known to the skilled person. For example, the skilled person may use the experimental protocol as validated for peptides presented by HLA-A*0201 in Tourdot et al., A general strategy to enhance immunogenicity of low-affinity HLA-A2.1-associated peptides: implication in the identification of cryptic tumor epitopes. Eur J Immunol. 2000 December; 30(12):3411-21. In this context, a reference peptide, such as HIV pol 589-597, may be additionally used in the test. This enables calculation of the in vitro affinity relative to the binding observed with the reference peptide, e.g. by the following equation:
Relative affinity=concentration of each peptide inducing 20% of expression of HLA-A*0201/concentration of the reference peptide inducing 20% of expression of HLA-A*0201
(where 100% is the level of HLA-A*0201 expression detected with the reference peptide, e.g. HIV pol 589-597, for example used at a 100 μM concentration).
The experimental protocol is similar to the one that was validated for peptides presented by the HLA-A*0201 (Tourdot et al., A general strategy to enhance immunogenicity of low-affinity HLA-A2.1-associated peptides: implication in the identification of cryptic tumor epitopes. Eur J Immunol. 2000 December; 30(12):3411-21). Affinity measurement of the peptides is achieved with the human tumoral cell T2 which expresses the HLA-A*0201 molecule, but which is TAP1/2 negative and incapable of presenting endogenous peptides.
(§1) T2 cells (2.10^5 cells per well) were incubated with decreasing concentrations of peptides from 100 μM to 0.1 μM in a AIMV medium supplemented with 100 ng/μl of human β2m at 37° C. for 16 hours. Cells were then washed two times and marked with the anti-HLA-A2 antibody coupled to PE (clone BB7.2, BD Pharmagen).
The analysis was performed by FACS (Guava Easy Cyte). For each peptide concentration, the geometric mean of the labeling associated with the peptide of interest was subtracted from background noise and reported as a percentage of the geometric mean of the […] labeling obtained for the reference peptide HIV pol 589-597 at a concentration of 100 μM. The relative affinity is then determined as follows:
relative affinity=concentration of each peptide inducing 20% of expression of HLA-A*0201/concentration of the reference peptide inducing 20% of expression of HLA-A*0201.
The experimental protocol, materials and methods correspond to those outlined in Example 4, with the only difference that the above mentioned antigenic peptides were used.
as §1, with “β2 m” for “β2m”

[1] = tested on: splenocytes (IFNγ secretion); test: ELISPOT-IFNγ on splenocytes of β/A2/DR3 mice vaccinated with FOXM1-B2 (Example 12); type: in vivo, mouse
Protocol: Briefly, 15 β/A2/DR3 mice were immunized with a specific vaccination peptide (vacc-pAg) combined to a common helper peptide (h-pAg) (as outlined in Table 14 below). The vacc-pAg were compared in couples (group 1 vs. group 2). Thereby, both native and optimized versions of a single peptide were compared in each wave.
The animals were immunized on day 0 (d0) with a prime injection, and on d14 with a boost injection. Each mouse was injected s.c. at tail base with 100 μL of an oil-based emulsion that contained:
100 μg of vacc-pAg (25 μL of 4 mg/mL stock per mouse);
150 μg of h-pAg (15 μL of 10 mg/mL stock per mouse);
10 μL of PBS to reach a total volume of 50 μL (per mouse);
Incomplete Freund's Adjuvant (IFA) added at 1:1 (v:v) ratio (50 μL per mouse).
Seven days after the boost injection (i.e., on d21), the animals were euthanized and the spleen was harvested. Splenocytes were prepared by mechanical disruption of the organ followed by 70 μm-filtering and Ficoll density gradient purification.
The splenocytes were immediately used in an ELISPOT-IFNγ assay (Table 15). […]
(§2) Spots were counted on a Grand ImmunoSpot® S6 Ultimate UV Image Analyzer interfaced to the ImmunoSpot 5.4 software (CTL-Europe). […]

[2] = tested on: splenocytes (IFNγ secretion); test: ELISPOT-IFNγ on splenocytes of HHD DR3 and HHD DR1 mice vaccinated with IL13RA2-BL (Example 15); type: in vivo, mouse
Protocol: Mice were immunized with a specific vaccination peptide (vacc-pAg) combined to a common helper peptide (h-pAg).
The peptides were provided as follows: • vacc-pAg: IL13RA2-BL; all produced and provided at a 4 mg/ml (4 mM) concentration; • h-pAg: HHD-DR3 peptide (SEQ ID NO: 32); for immunization of β/A2/DR3 HHDDR3 mice provided at a 4 mg/ml (4 mM) concentration • h-pAg: UCP2 peptide (SEQ ID NO: 159); for immunization of β/A2/DR1 HHDDR1 mice provided at a 4 mg/ml (4 mM) concentration
The animals were immunized on day 0 (d0) with a prime injection, and on d14 with a boost injection. Each mouse was injected s.c. at tail base with 100 μL of an oil-based emulsion that contained: • 100 μg of vacc-pAg (25 μL of 4 mg/mL stock per mouse); • 150 μg of h-pAg (15 μL of 10 mg/mL stock per mouse); • 10 μL of PBS to reach a total volume of 50 μL (per mouse); • Incomplete Freund's Adjuvant (IFA) added at 1:1 (v:v) ratio (50 μL per mouse).
Seven days after the boost injection (i.e. on d21), the animals were euthanized and the spleen was harvested. Splenocytes were prepared by mechanical disruption of the organ followed by 70 μm-filtering and Ficoll density gradient purification.
The splenocytes were immediately used in an ELISPOT-IFNγ assay (Table 21). […]
as §2

Row | Concentration inducing 20% of expression of the HLA-A*0201 (HLA-A*0201) [µM] | Mean fluorescence intensity (HLA-A*0201; peptide at 3 μM) | Mean fluorescence intensity (HLA-A*0201; peptide at 25 μM) | Mean fluorescence intensity (HLA-A*0201; peptide at 100 μM) | Sequence | Binding to HLA-A*0201 (in words) (HLA-A*0201) | T cell responses in the ELISPOT-IFNγ assay (in words) ([1]; β/A2/DR3 mice vaccinated with FOXM1-B2 (100 μg) + HHD-DR3 + IFA, d0 and d14) | Activation of T cells after ex vivo re-stimulation with human FOXM1-H2 (in words) ([1]; β/A2/DR3 mice vaccinated with FOXM1-B2, re-stimulation FOXM1-H2 10 μM) | Response of splenocytes, ELISPOT-IFNγ (in words) ([2]; HHD DR3 and HHD DR1 mice immunized with IL13RA2-BL + helper + IFA, stimulation with IL13RA2-BL) | Immune response against human peptide IL13RA2-HL (in words) ([2]; mice immunized with IL13RA2-BL, stimulation with human peptide) | % of maximum HIV pol 589-597 binding activity (HLA-A*0201; peptide at 6.25 μM) [%] | % of maximum HIV pol 589-597 binding activity (HLA-A*0201; peptide at 25 μM) [%] | % of maximum HIV pol 589-597 binding activity (HLA-A*0201; peptide at 100 μM) [%]
1 | 6.7 | 12.7 | 98.2 | 105 | LMDLSTTEV (Sequence variant) [SEQ ID NO: 75] | bind | induced strong T cell responses | efficient activation of T cells could be observed | – | – | – | – | –
2 | – | – | – | – | FLPFGFILPV (Sequence variant) [SEQ ID NO: 139] | strong binding affinity | – | – | strong response of splenocytes | effective immune response | 43 | 96 | 69

From US20200256877A1, “Microbiota Sequence Variants Of Tumor-Related Antigenic Epitopes” (ENTEROME S.A., priority 2017, published 2020)
